These results are taken from publication PMC7375048, “The impact of acute rosiglitazone on insulin pharmacokinetics at the blood‐brain barrier” (Endocrinology, Diabetes & Metabolism, 2020).

Structures can show the parent of a compound that is named as a salt. Some results are limits rather than exact numbers.

For series [1], the system named is murine BBB. As to the kind of experiment: Transcardiac brain perfusion of 125I-insulin, multiple-time regression analysis. The conditions noted are these: mouse, in vivo. From the text:
(§1) This experimental set‐up was based on previous studies investigating the acute effect of rosiglitazone. ^35 , ^36
The perfusate was freshly prepared for each study day. Perfusate was collected throughout the study to determine the average cpm/µL of perfusate. After perfusion, the olfactory bulb was collected and the brain dissected into regions (frontal/parietal/occipital cortex, striatum, hypothalamus, hippocampus, thalamus, cerebellum, midbrain and pons/medulla) according to Glowinski and Iversen; ^38 each region was weighed separately. The amount of radioactivity was determined by a gamma counter (Wizard2, Perkin Elmer). Brain/perfusate ratios are calculated by dividing the cpm in a gram of brain by the cpm in a µL of perfusate to yield units of µL/g.
Exposure time is calculated by the formula:(1) Exposure time=∫0tCp(t)dt/Cp(t) where Cp(t) is the level of radioactivity (cpm) in serum at time (t). Exposure time corrects for the clearance of peptide from the blood. […] The slope of the linearity measures K i and is reported with its standard error term. The y‐intercept of the linearity measures V i, the initial volume of distribution in brain at t = 0. ^37 Blasberg, Fenstermacher and Patlak originally described V i as the volume of test substance that rapidly and reversibly exchanges with the plasma (Blasberg 1983). For cardiac perfusion studies, formula 2 is employed, using the brain/perfusate ratios and the clock time is used in place of exposure time.

In series [2] the test system is brain capillary sequestration. It is filed as in vivo, mouse. The procedure:
Two and a half minutes later, blood was collected from the carotid, the mice decapitated and the whole brain removed. […] Homogenates were then centrifuged at 3500 g for 20 minutes at 4°C with a swinging bucket rotor (Beckman Coulter). The brain capillary fraction contained in the pellet and the supernatant containing the brain parenchyma were carefully separated. […] Fractions were expressed as percentages of total brain.

For series [3] the following is noted: mouse, in vivo, iv. The procedure: (§2) Mice were decapitated, and the brain was collected immediately, dissected into the hypothalamus, olfactory bulb and remaining whole brain and weighed. Blood was centrifuged at 5400g for 10 min and serum collected. Radioactivity in 50 µL of serum and entire brain samples were counted in a gamma counter (Wizard2; Perkin Elmer).

Series [4] has as its system murine BBB. In words: Blood-to-brain 125I-insulin transport, multiple-time regression analysis. It is filed as in vivo, mouse. As for the experimental part: as §1, §2
Exposure time is calculated by the formula:(1) Exposure time=∫0tCp(t)dt/Cp(t) where Cp(t) is the level of radioactivity (cpm) in serum at time (t). Exposure time corrects for the clearance of peptide from the blood. […] The slope of the linearity measures K i and is reported with its standard error term. […] For cardiac perfusion studies, formula 2 is employed, using the brain/perfusate ratios and the clock time is used in place of exposure time.

Series [5] concerns murine BBB. The note with it: mouse, in vivo, iv; cited from earlier work. From the text:
(§3) However, we were interested in the direct effect that would be mediated at the luminal surface of the brain endothelial cell, rather than an effect within the CNS. Indeed, PPARγ activation is known to have a direct effect on cerebral vascular expression of proteins, including various adhesion molecules and metalloproteinases. ^61 Therefore, we know brain en ...

Series [6] has as its system P‐glycoprotein. The conditions noted are these: cited from earlier work.
Excerpt: as §3

For the molecule “125I‐insulin: human insulin (Sigma‐Aldrich) radioactively labelled with 125I by the chloramine‐T method”, in series [1], the “BBB transport rate K i following cardiac perfusion, hypothalamus” value was 6.11 ± 1.92 µL/g‐min; the “BBB transport rate K i following cardiac perfusion, olfactory bulb” value is listed as 3.34 ± 1.31 µL/g‐min; the “change of hypothalamic BBB transport rate in the absence of serum” value is reported as “nearly tripled”; the “vascular binding V i following cardiac perfusion, hypothalamus” value was -4.5 ± 5.7 µL/g. For the same molecule, the “vascular binding V i following cardiac perfusion, olfactory bulb” value in series [1] amounted to 13.5 ± 4.4 µL/g. For the same molecule, the “fraction of radioactivity in brain parenchyma vs capillary fraction” value in series [2] (mouse, in vivo, iv) is recorded as “majority”. Moreover, in series [3], the “average half‐time clearance from blood” value was found to be 1.54 min. In addition, in series [4] (mouse, in vivo), the “BBB transport rate K i, hypothalamus” value is given as 1.39 ± 0.28 µL/g‐min; the “average rate of transport K i, hypothalamus” value is 1.75 µL/g‐min; the “average rate of transport K i, olfactory bulb” value stood at 2.25 µL/g‐min; the “vascular binding V i, hypothalamus” value is given as 11.6 ± 2.0 µL/g. The “vascular binding V i, olfactory bulb” value in series [4] (mouse, in vivo) stood at 10.4 ± 4.8 µL/g. The “BBB transport rate K i, whole brain” value in series [4] (mouse, in vivo, iv) is listed as 1.26 ± 0.17 µL/g‐min.
Consider `CN(CCOc1ccc(CC2SC(=O)NC2=O)cc1)c1ccccn1` (centres unmarked) [RSG, rosiglitazone maleate], for which, in series [5], the “penetration of the murine BBB” value is 0.045 % of an iv injected dose and the “time of brain uptake” value is ≤ 1 min. For the same molecule, the “P‐glycoprotein interaction” value in series [6] is reported as “substrate of p‐glycoprotein”. For the same molecule, in series [2] (10 µg RSG pretreatment, data not shown), the “effect on capillary/parenchyma distribution of 125I-insulin” value is on record as “no overt differences”. In addition, in series [4] (1 µg S961 (P = .0006), 10 µg RSG pretreatment with S961 (P = .044), two-way ANOVA, Sidak), the “effect on 125I-insulin vascular binding (V i), whole brain” value is “prevented this decrease in binding”. Further, the “effect on 125I-insulin vascular binding (V i), hypothalamus” value in series [4] (1 µg S961 (P = .002), 10 µg RSG pretreatment with S961 (P = .025), two-way ANOVA, Sidak) was “prevented this decrease in binding”. The “effect on rate of 125I-insulin BBB transport” value in series [4] (whole brain, olfactory bulb, hypothalamus, 10 µg RSG pretreatment, 1 µg S961 co-injected) is reported as “did not significantly alter”.
